Literature values, collected in publication PMC6893859 (Regulatory toxicology and pharmacology : RTP, 2018).

What was measured:
patients = conditions: human, in vivo
humans = conditions: human, in vivo

| Substance | safety and tolerability (patients) | tolerability (humans) |
| --- | --- | --- |
| CER-001: complex between recombinant human ApoA-I and dipalmitoyl phosphatidylcholine and sphingomyelin | safe and well tolerated |  |
| CSL-112: reformulated reconstituted and purified ApoA1 (from CSL-111) |  | well tolerated |
